These results are taken from the RNAGym collection of RNA variant scans (doi:10.1093/nar/gkz1192).

To fix the notation:
B1: CPEB3 Ribozyme (parent)
chain: UAACAGGGGGCCACAGCAGAAGCGUUCACGUCGCAGCCCCUGUCAGAUUCUGGUGAAUCUGCGAAUUCUGCUGUAUAUCUC

This series covers variants of B1. In words: self-cleavage, relative activity (ratio to wild type); higher = more cleavage; in vitro, sequencing. The essentials:
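After error-prone PCR and barcoding, CPEB3 ribozyme mutant libraries were transcribed with T7 RNA polymerase at 37°C for 5 hours, then given 15 min with DNase I before an EDTA stop, and they cleaved during both steps. Reverse transcription with template switching preceded Illumina sequencing. Relative activity divides a variant's cleaved/total read fraction by the unmutated ribozyme's. At least 5 reads were required per variant, and three batches were averaged.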
On to C40G A65G, for which the self-cleavage worked out at 0.35. In the case of A35G U43A, the self-cleavage is 1.28. For U74A U80A the value was 1.26; for C34G U58A, 0.11; for U49C G73A, 0.73. For C34G G63C the value was 0.24. Consider U1A G30A, for which the self-cleavage was 0.11. For C38G C59U the value was 0.22. For A57G U72A the value was 0.62. On to G19C U60C, for which the self-cleavage came out at 0.15. For A3G G22U the value was 0.15; for U25C G63U, 0.3. For C44U U60A the value was 0.14. For G30A C68U the value was 0.12.

Regarding U51G U54C, the self-cleavage amounted to 1.06. Consider A28U U66A, for which the self-cleavage amounted to 0.31. For A21G U69C the value was 0.27; for U60A U69G, 0.25.

In the case of G6A U49A, the self-cleavage turned out to be 0.08. As to C4A G10A, the self-cleavage was 0.59.

As for A2G C32U, the self-cleavage amounted to 0.3. For C12G U41C the value was 1.09; for A64G A75C, 1.06. For U60G U74C the value was 0.88; for A15U U43G, 0.25; for G10A U60A, 0.14. For G8A U41C the value was 0.32; for A5U C29U, 0.54; for C32A C38A, 0.25. As to A20U U67C, the self-cleavage was 0.22. For G6A U25G the value was 0.47; for U25A A28G, 0.28. For A3G G53A the value was 1.02; for A5U C32A, 0.32; for C11G A45G, 0.35.

Take C39U U69A: the self-cleavage is 0.44. For U49C A65C the value was 0.14. For U49C A65G the value was 0.26. For G30A A77G the value was 0.4; for C59A U60C, 0.19; for U1G U80A, 1.08. As for C44G A45G, the self-cleavage came out at 0.34. For C23U U69A the value was 0.1. For A21G U58A the value was 0.29; for U26C U48G, 0.47. For A18U A47G the value was 0.37.

With U54G A57G, the self-cleavage stood at 0.43. For C32G G73A the value was 0.22; for U51C U76G, 1.16; for C12U A13G, 0.74.

On to A35G G46A, for which the self-cleavage is 0.96.

Regarding A15U C29U, the self-cleavage was 0.5. Turning to C11G A18G, the self-cleavage turned out to be 0.54.

In the case of U26A A75G, the self-cleavage is 0.69. For U69C U76C the value was 0.66; for G55C, 0.94; for G16C U25C, 0.21. For A13C A45U, the self-cleavage worked out at 0.44. Turning to G10C A15U, the self-cleavage was 0.08. As for G19U A35U, the self-cleavage worked out at 0.15.

A35G C79U: the self-cleavage was determined as 1.51. For A15C U43C the value was 0.46. For C32U G53A the value was 0.27; for A13U G70C, 0.21.

A18G G63C: the self-cleavage turned out to be 0.55. For A28U C68A the value was 0.32; for C12A U43A, 0.99; for U43A U67C, 0.33. For G6U C29U the value was 0.25; for C37A U49C, 0.11; for G46U U48G, 0.14.

As for C34U A47U, the self-cleavage worked out at 0.17. For G8A A65G the value was 0.14; for C40U A57G, 0.36. For A21G A75G the value was 0.56. For U31C U48C the value was 0.37. Take G30U A56G: the self-cleavage was 0.26. U31C U60A: the self-cleavage came to 0.34.

As for U26A C29G, the self-cleavage is 0.3. For A18G U60A the value was 0.38.

With A15G U58A, the self-cleavage stood at 0.32.

As for A56G G61U, the self-cleavage was 0.62. For A2G C71U the value was 0.24. For U26C C38G the value was 0.09; for A28G C32A, 0.13.

In the case of U69A U76A, the self-cleavage stood at 0.84. For A3U C59U the value was 0.66.

With A13G A75C, the self-cleavage is 1.03.

Turning to C23A U74A, the self-cleavage is 0.23. Consider A21U A28C, for which the self-cleavage turned out to be 0.15.

Turning to A21G G61U, the self-cleavage stood at 0.34. For C12A A35U the value was 1.27.

U41C A75C: the self-cleavage was 1.15. For G10A A15G the value was 0.24; for A35U C68A, 0.11. For U25C A35U the value was 0.24; for A21G C68U, 0.43; for A35U U67A, 0.24. For A3G G33C the value was 0.31. As to A2G A77C, the self-cleavage came to 0.54. For U1G A47G the value was 1.16; for U25C U41C, 0.28; for A57G A77U, 0.9.

In the case of A20U A45G, the self-cleavage came out at 0.28.

For the variant G36A U41C, the self-cleavage was 0.56. For C39A U43C the value was 0.4; for C17U U66C, 0.23; for G73C U80C, 1.29. In the case of C32A U41A, the self-cleavage worked out at 0.27.

As to U41A U72C, the self-cleavage turned out to be 0.28.

Turning to A5C U58C, the self-cleavage is 0.58.

As for G42U U43A, the self-cleavage worked out at 0.54. For G16U U80C, the self-cleavage was 0.7. For A21U U51A the value was 0.43; for A21G G24C, 0.23. For U31G U67C the value was 0.3; for A5U U31C, 0.92. On to A21U C71G, for which the self-cleavage worked out at 0.09. For G9A U41G the value was 0.26. For the variant A5U G6A, the self-cleavage is 0.52. For G19A U80A the value was 0.58; for A3U G7C, 0.35. For C32U G63A the value was 0.46; for U1C A21U, 0.3; for U1C U51C, 0.7.

Turning to C37U A64U, the self-cleavage turned out to be 0.27. For G53A the value was 1.13; for G24A U60C, 0.24.

Turning to C50G U69A, the self-cleavage worked out at 0.17. For G16U A18G the value was 0.29. For U1C C12U the value was 1.22; for A47G U76C, 1.04; for A20C A57G, 0.09. For C71G the value was 0.42; for A20U U72A, 0.25. For G19C U67C, the self-cleavage amounted to 0.21. For A21U U48C the value was 0.27; for A21G U41G, 0.29; for A18U C50U, 0.42.

Regarding U1A U72G, the self-cleavage was found to be 0.75. For A15C A57U the value was 0.54; for C38A C40A, 0.05; for U74A U78A, 1.18. For U66A G73A the value was 1.04; for U41G U69G, 0.22. For A56G A75G the value was 0.64; for C12G U31C, 0.92.

On to U1C U69A, for which the self-cleavage worked out at 0.44. For U31G C79A the value was 0.56; for G19U C44U, 0.18. For U31C C62G the value was 0.14; for A5C A21G, 0.69; for G46C A56U, 0.13. Take G24A A56G: the self-cleavage worked out at 0.13. For G8A G24A the value was 0.08; for U51A C62A, 0.22; for G10U A45C, 0.14. For G6A U60A the value was 0.33.

On to A45U A65U, for which the self-cleavage worked out at 0.18. For A65G U76C the value was 0.53; for A5G A57C, 0.28; for U43A A45U, 0.82. For G10U U25C the value was 0.21; for A13U A21G, 0.48; for U41G G52C, 0.14.

With A15C U31A, the self-cleavage turned out to be 0.42. As for C34A U69C, the self-cleavage was 0.07.
